In PMC3622243:

What was measured:
[1] = molecular target: HLA-B27 heterotrimer complexed with the HIV GAG-KK10 L6M escape mutant peptide (human | not stated | HIV); test: SPR
HLA-A3 heterotrimer = test: SPR
[2] = molecular target: HLA-B27 free heavy chains generated from immobilised heterotrimers (human); test: SPR
[3] = molecular target: HLA-B35 expressed by transfected LBL.721.221 cells (human); test: flow cytometry on cells
[4] = molecular target: HLA-A2 expressed by transfected LBL.721.221 cells (human); test: flow cytometry on cells
[5] = molecular target: HLA-A3 expressed by transfected LBL.721.221 cells (human); test: flow cytometry on cells
[6] = molecular target: HLA-B*2705 expressed by transfected LBL.721.221 cells (human); test: flow cytometry on cells
[7] = molecular target: c67s mutant of HLA-B*2705 expressed by transfected LBL.721.221 cells (human); test: flow cytometry on cells

Q: Which Kd [1] does the source give for “LILRB1 incorporating the two immunoglobulin-like domains D1 and D2 (domain or fragment)” here?
A: The Kd was 3.93 µM.

Q: “LILRB2 incorporating the two immunoglobulin-like domains D1 and D2 (domain or fragment)” was tested. Which Kd [1] did it give?
A: The Kd was 16 µM.

Q: What about the Kd (HLA-A3 heterotrimer) of the same substance?
A: Its Kd is 25.3 µM.

Q: And the Kd [2]?
A: Its Kd is 2.6 µM.

Q: How did the geometric mean fluorescent intensity [3] turn out when “Soluble LILRB2Fc incorporating the D1, D2, D3 and D4 domains of LILRB2 (Fc fusion)” was run?
A: Its geometric mean fluorescent intensity is 81.

Q: And the geometric mean fluorescent intensity [4]?
A: Its geometric mean fluorescent intensity is 233.

Q: What about the geometric mean fluorescent intensity [5] of the same substance?
A: Its geometric mean fluorescent intensity is 107.

Q: And the geometric mean fluorescent intensity [6]?
A: The geometric mean fluorescent intensity was 568.

Q: And the geometric mean fluorescent intensity after inhibition with HC10 [6]?
A: The geometric mean fluorescent intensity after inhibition with HC10 was 244.

Q: And the geometric mean fluorescent intensity after inhibition with W632 [6]?
A: Its geometric mean fluorescent intensity after inhibition with W632 is 161.

Q: What about the geometric mean fluorescent intensity after isotype control MAbs [6] of the same substance?
A: Its geometric mean fluorescent intensity after isotype control MAbs is 489.

Q: And the geometric mean fluorescent intensity [7]?
A: The geometric mean fluorescent intensity was 24.
